US20200230253A1
One block for each molecule: values may come before it.

Key:
[1] = biological target: mannose phosphate 6 receptor (M6PR) expressed on HepG2 cells (human); experiment: cell-based or functional assay
[2] = biological target: mannose phosphate 6 receptor (M6PR), immobilized on a CM5 chip; experiment: SPR, M6PR immobilized; the reference itself
[3] = biological target: mannose phosphate 6 receptor (M6PR), immobilized on a CM5 chip; experiment: SPR (BIACORE T200), M6PR immobilized on CM5 chip by amine coupling
[4] = biological target: mannose phosphate 6 receptor (M6PR), immobilized on a CM5 chip; experiment: SPR (BIACORE T200), M6PR immobilized on CM5 chip by amine coupling, analyte 200 nM to 12.5 nM in HBS-EP
[5] = biological target: mannose phosphate 6 receptor (M6PR), immobilized on a CM5 chip; experiment: SPR, M6PR immobilized; relative to iduronate-2-sulfatase

- intracellular absorption activity (Vmax), HepG2 cells, 24 h at 37 C, ELISA of cell content [1]: 9.5 nM
- relative binding affinity from KD (% of iduronate-2-sulfatase) [2]: 100%
- relative ka (% of iduronate-2-sulfatase) [2]: 100%
- relative kd (% of iduronate-2-sulfatase) [2]: 100%
- Kd [3]: 29.1 nM
- koff [3]: 0.00395 s⁻¹
- kon [4]: 136000 M⁻¹ s⁻¹
Molecule: iduronate-2-sulfatase (Elaprase manufactured by Shire) (from UniProt P22304 26-550) (enzyme)

- intracellular absorption activity (Vmax), HepG2 cells, 24 h at 37 C, ELISA of cell content [1]: 10.8 ng/mL
- intracellular absorption activity relative to iduronate-2-sulfatase [1]: 81.4%
- relative binding affinity from KD (% of iduronate-2-sulfatase) [5]: 88%
- relative ka (% of iduronate-2-sulfatase) [5]: 67%
- relative kd (% of iduronate-2-sulfatase) [5]: 78%
- Kd [3]: 33.1 nM
- koff [3]: 0.00307 s⁻¹
- kon [3]: 92000 M⁻¹ s⁻¹
B1: long-acting iduronate-2-sulfatase conjugate (protein, part only; not given: Immunoglobulin Fc and PEG linker, human, UniProt P22304 26-550, looked up, not shown: a dimerising Fc or GST)
chain: SETQANSTTDALNVLLIIVDDLRPSLGCYGDKLVRSPNIDQLASHSLLFQNAFAQQAVCAPSRVSFLTGRRPDTTRLYDFNSYWRVHAGNFSTIPQYFKENGYVTMSVGKVFHPGISSNHTDDSPYSWSFPPYHPSSEKYENTKTCRGPDGELHANLLCPVDVLDVPEGTLPDKQSTEQAIQLLEKMKTSASPFFLAVGYHKPHIPFRYPKEFQKLYPLENITLAPDPEVPDGLPPVAYNPWMDIRQREDVQALNISVPYGPIPVDFQRKIRQSYFASVSYLDTQVGRLLSALDDLQLANSTIIAFTSDHGWALGEHGEWAKYSNFDVATHVPLIFYVPGRTASLPEAGEKLFPYLDPFDSASQLMEPGRQSMDLVELVSLFPTLAGLAGLQVPPRCPVPSFHVELCREGKNLLKHFRFRDLEEDPYLPGNPRELIAYSQYPRPSDIPQWNSDKPSLKDIKIMGYSIRTIDYRYTVWVGFNPDEFLANFSDIHAGELYFVDSDPLQDHNMYNDSQGGDLFQLLMP
modifications: N-terminus linked through a 10 kDa polyethylene glycol linker (from ALD-PEG-ALD, reductive amination) to the N-terminal proline of one chain of the immunoglobulin Fc
